B1: HDV Ribozyme (parent)
chain: GGCCGGCAUGGUCCCAGCCUCCUCGCUGGCGCCGGCUGGGCAACAUUCCGAGGGGACCGUCCCCUCGGUAAUGGCGAAUGGGACCCA

Variants of: B1
Assay: self-cleavage, relative activity (ratio to wild type); higher = more cleavage; co-transcriptional

First: G10U G73C
Second: G10A G54U
The self-cleavage of the first is lower: 0.0831 for the first, 0.84 for the second.

First: G38U C61G
Second: C24G C41G
The self-cleavage of the first is higher: 0.086 for the first, 0 for the second.

First: C13A G53C
Second: A8U G67U
The self-cleavage of the first is lower: 0.133 for the first, 0.898 for the second.

Going from C3G G74U to C85U C86A, the self-cleavage rises from 0.189 to 0.923.

Compared with C33G U60C, C26U U79G is higher in self-cleavage: 0.196 for the first, 1.03 for the second.

Compared with G34A C41U, C63G A70U is higher in self-cleavage: 0.217 for the first, 0.564 for the second.

Going from G31C G55C to C24U A78U, the self-cleavage falls from 0.327 to 0.172.

First: U47C A77C
Second: G55U A87C
The self-cleavage of the first is lower: 0.317 for the first, 1.01 for the second.

Compared with C61A A71U, G28C U60G is lower in self-cleavage: 0.784 for the first, 0 for the second.

First: A51C A77U
Second: G2A U60G
The self-cleavage of the first is higher: 0.429 for the first, 0.314 for the second.

Going from C24A G34U to G29C C64G, the self-cleavage rises from 0.0831 to 0.095.

Compared with G82A, G1U A77U is lower in self-cleavage: 0.418 for the first, 0.146 for the second.

Going from U47C U72A to G29C G81U, the self-cleavage falls from 0.65 to 0.

First: G73U U79A
Second: G55C C61G
The self-cleavage of the first is lower: 0.131 for the first, 0.959 for the second.

First: C18U G28C
Second: C14U U72A
The self-cleavage of the first is lower: 0.089 for the first, 0.745 for the second.

Compared with C18G G82U, U9G U72G is higher in self-cleavage: 0.219 for the first, 0.776 for the second.

Going from A71U G73C to G29U G38A, the self-cleavage falls from 0.54 to 0.0656.

Going from G11A G25A to G55U A77C, the self-cleavage rises from 0.0755 to 0.353.

Going from C75U G80U to U79A G81U, the self-cleavage rises from 0.178 to 0.295.

Compared with U12C A16C, C36U G68U is higher in self-cleavage: 0.302 for the first, 0.786 for the second.

Compared with C48A C84A, C21A U69G is lower in self-cleavage: 1.08 for the first, 0.0723 for the second.

First: C44U C85U
Second: G38U C48G
The self-cleavage of the first is higher: 0.954 for the first, 0.156 for the second.

Compared with U60A A71G, G1C U9A is lower in self-cleavage: 1.12 for the first, 0.0978 for the second.

Compared with G34A C44U, G35A C85U is higher in self-cleavage: 0.0863 for the first, 0.541 for the second.

First: A8U G40A
Second: U20G U37G
The self-cleavage of the first is higher: 0.892 for the first, 0 for the second.

First: G2U C66A
Second: G10C A70C
The self-cleavage of the first is lower: 0.0525 for the first, 0.923 for the second.

First: G40C A45G
Second: C21A G53U
The self-cleavage of the first is higher: 0.32 for the first, 0.135 for the second.

First: G82A C85U
Second: C14G C85U
The self-cleavage of the first is lower: 0.495 for the first, 1.31 for the second.

Compared with A43C C48A, U23G G39A is lower in self-cleavage: 0.386 for the first, 0.17 for the second.

First: C19U A77C
Second: U47A C66U
The self-cleavage of the first is lower: 0.0811 for the first, 1.17 for the second.

First: C15G C22G
Second: C7G C63U
The self-cleavage of the first is lower: 0.119 for the first, 0.674 for the second.

Going from U9A C19G to G31A C75A, the self-cleavage rises from 0.0665 to 0.136.

Going from C3U G82A to U9G C63G, the self-cleavage rises from 0.283 to 1.17.

First: G28A G35A
Second: G29C G55A
The self-cleavage of the first is lower: 0.0608 for the first, 0.166 for the second.

Going from C30U C75U to A8U G35C, the self-cleavage falls from 0.157 to 0.0639.

First: G50U A78U
Second: G2U A51C
The self-cleavage of the first is higher: 0.229 for the first, 0.0528 for the second.

Compared with C32A G74C, G6C A56C is higher in self-cleavage: 0.108 for the first, 0.401 for the second.

Going from C7A G40U to C57A A71G, the self-cleavage rises from 0.295 to 0.98.

Compared with U72G G81C, C7G U37G is lower in self-cleavage: 0.0791 for the first, 0 for the second.

Compared with C48A C49U, G38U C41G is lower in self-cleavage: 1.23 for the first, 0.325 for the second.

Compared with A16G A71C, G38U G74U is lower in self-cleavage: 0.575 for the first, 0.14 for the second.

First: C22A C26U
Second: G59C G82A
The self-cleavage of the first is higher: 0.578 for the first, 0.32 for the second.

Compared with C7U U23G, C58G G82U is higher in self-cleavage: 0.332 for the first, 0.534 for the second.

First: C44G A56U
Second: C26G G55C
The self-cleavage of the first is lower: 0.734 for the first, 1.04 for the second.

First: C64U C66U
Second: G1U C18U
The self-cleavage of the first is higher: 1.01 for the first, 0.315 for the second.

Compared with G17C G74U, G28U G52C is higher in self-cleavage: 0.0554 for the first, 0.154 for the second.

Going from G5C G76A to C13U G59U, the self-cleavage rises from 0.415 to 0.831.

Compared with G34C G73U, G39U G74U is higher in self-cleavage: 0.0627 for the first, 0.382 for the second.

Compared with C36G G68U, A8C G68C is higher in self-cleavage: 0.0615 for the first, 0.604 for the second.

First: G6U G73U
Second: G55C C66U
The self-cleavage of the first is lower: 0 for the first, 0.983 for the second.

Going from C41G C63U to C19A C48U, the self-cleavage falls from 0.844 to 0.0683.

Compared with C63G U79A, U60A G74U is lower in self-cleavage: 0.856 for the first, 0.521 for the second.

First: G5A G6A
Second: A56U A87G
The self-cleavage of the first is lower: 0 for the first, 1.02 for the second.

Going from C19A G35A to G53C A87G, the self-cleavage rises from 0.111 to 0.971.

First: C3U C13U
Second: G5U G54A
The self-cleavage of the first is higher: 0.509 for the first, 0.314 for the second.

Going from C21G C84U to G54A G82U, the self-cleavage rises from 0.0231 to 0.205.

Going from U46A G50A to U9C C63U, the self-cleavage rises from 0.658 to 0.987.

Compared with C7U C15G, C49G G74U is lower in self-cleavage: 0.536 for the first, 0.219 for the second.

Going from G1C C33A to G31A G35C, the self-cleavage falls from 0.222 to 0.

Going from C26G G82U to C58G C86G, the self-cleavage rises from 0.604 to 0.969.

Going from G28C C61G to C30U C86G, the self-cleavage rises from 0.158 to 0.733.

Compared with U60C G67C, G10C U72G is lower in self-cleavage: 0.554 for the first, 0.369 for the second.

Compared with A8C G81A, C18A A42G is lower in self-cleavage: 0.151 for the first, 0.102 for the second.

Compared with A71C C85A, A8G U65A is higher in self-cleavage: 0.578 for the first, 0.89 for the second.

Going from C3U C22U to C4A C57G, the self-cleavage falls from 0.525 to 0.277.

Going from U9C C48A to A45C A56G, the self-cleavage falls from 0.911 to 0.615.

Going from G1A C62U to C30G U37G, the self-cleavage falls from 0.0791 to 0.

Going from G53A G76C to G28A C61G, the self-cleavage falls from 1.08 to 0.133.

Compared with G6U G67C, A42G A70G is lower in self-cleavage: 0.73 for the first, 0.623 for the second.

Compared with C62A C64A, U27G G38U is lower in self-cleavage: 0.332 for the first, 0.133 for the second.

Compared with C14G G29U, C3A C66G is higher in self-cleavage: 0.0396 for the first, 0.508 for the second.

First: G28A A83C
Second: C4U G68C
The self-cleavage of the first is lower: 0.0875 for the first, 0.635 for the second.

First: C15U G52C
Second: C13U C61U
The self-cleavage of the first is higher: 1.03 for the first, 0.77 for the second.

Compared with C49U G80U, A42C A87U is higher in self-cleavage: 0.219 for the first, 0.283 for the second.

Compared with C62G G81C, U60G G67C is higher in self-cleavage: 0.208 for the first, 0.98 for the second.

First: U37C G39C
Second: A43G C62G
The self-cleavage of the first is lower: 0.177 for the first, 0.415 for the second.

Going from G17U C41U to U27A C49G, the self-cleavage rises from 0.253 to 0.617.

Compared with U37G C64U, C57G A87U is higher in self-cleavage: 0 for the first, 0.861 for the second.

Compared with G6U C48G, A45U A56C is higher in self-cleavage: 0.374 for the first, 0.806 for the second.

First: A8U G74U
Second: C7G U60A
The self-cleavage of the first is lower: 0.173 for the first, 0.317 for the second.

Compared with G2C A83U, G2U U20C is lower in self-cleavage: 0.0791 for the first, 0 for the second.

First: G31A U47G
Second: C22A G25C
The self-cleavage of the first is higher: 0.192 for the first, 0 for the second.

C33G A45U and C49G C75A are the same in self-cleavage: 0.185 for the first, 0.185 for the second.

Work on U12A G29C yielded a self-cleavage of 0.0386.

From the RNAGym collection of RNA variant scans (doi:10.7554/elife.80360)
